Measurements taken from article PMC9352680, “A comprehensive thermodynamic model for RNA binding by the Saccharomyces cerevisiae Pumilio protein PUF4”.
Changes are numbered by the printed parent chain. In names and notes the source's numbering stands.

T1: PUF4 RNA-binding domain (Saccharomyces cerevisiae, UniProt P25339 537-888)
T1 sequence: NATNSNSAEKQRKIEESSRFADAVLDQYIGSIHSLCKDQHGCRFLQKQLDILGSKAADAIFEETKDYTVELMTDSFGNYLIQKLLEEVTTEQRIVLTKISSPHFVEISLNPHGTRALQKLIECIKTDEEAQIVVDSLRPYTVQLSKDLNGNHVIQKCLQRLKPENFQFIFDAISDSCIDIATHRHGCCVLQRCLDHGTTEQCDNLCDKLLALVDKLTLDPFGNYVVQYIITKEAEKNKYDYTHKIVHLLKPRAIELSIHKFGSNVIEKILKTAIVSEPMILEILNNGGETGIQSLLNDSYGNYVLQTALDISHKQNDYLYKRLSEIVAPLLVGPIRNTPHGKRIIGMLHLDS

B1: Id_iii_S4_P4E.5_K4.1_C4.3_[C-2A]_H4.1_A4.1_F4.1_T4.2 (ssRNA)
RNA: UUUGACAACUGAUCGUUCUUUCUUAUUGUAUAUUAGUUUCUUUCUCGAUCAGUUGUCUUU
B2: Id_iii_S4_P4E.7_K4.3_C4.3_[C-2A]_H4.3_A4.1_F4.1_T4.2 (ssRNA)
RNA: B1 RNA with U27A, G28C, U29A, A30C
B3: Id_iii_S4_P4E.8_K4.4_C4.3_[T-1G]_H4.1_A4.2_F4.1_T4.2 (ssRNA)
RNA: B1 RNA with A25C, U26G, A32U
B4: Id_iii_S4_P4E.8_K4.4_C4.3_[T-3C]_H4.1_A4.2_F4.1_T4.2 (ssRNA)
RNA: B1 RNA with U24C, A25C, A32U
B5: Id_iii_S4_P4E.8_K4.4_C4.3_[C-2T]_H4.1_A4.2_F4.1_T4.2 (ssRNA)
RNA: B1 RNA with A25U, A32U
B6: Id_iii_S4_P4E.8_K4.4_C4.3_H4.1_A4.2_F4.1_T4.2_[T11C] (ssRNA)
RNA: B1 RNA with A25C, A32U, U37C
B7: Id_iii_S4_P4E.7_K4.3_C4.3_H4.3_A4.1_F4.1_T4.2_[T11C] (ssRNA)
RNA: B1 RNA with A25C, U27A, G28C, U29A, A30C, U37C
B8: Id_iii_S4_P4E.8_K4.4_C4.3_[C-2A]_H4.1_A4.2_F4.1_T4.2 (ssRNA)
RNA: B1 RNA with A32U
B9: Id_iii_S4_P4E.7_K4.3_C4.3_[C-2G]_H4.3_A4.1_F4.1_T4.2 (ssRNA)
RNA: B1 RNA with A25G, U27A, G28C, U29A, A30C
B10: Id_iii_S4_P4E.8_K4.4_C4.3_[T-1C]_H4.1_A4.2_F4.1_T4.2 (ssRNA)
RNA: B1 RNA with A25C, U26C, A32U
B11: Id_iii_S4_P4E.8_K4.4_C4.3_H4.1_A4.2_F4.1_T4.2_[G10C] (ssRNA)
RNA: B1 RNA with A25C, A32U, G36C
B12: Id_iii_S4_P4E.6_K4.2_C4.3_[T-1A]_H4.2_A4.1_F4.1_T4.2 (ssRNA)
RNA: B1 RNA with A25C, U26A, G28A
B13: Id_iii_S4_P3E.5_K3.1_C3.3_[C-2G]_H3.1_A3.1_F3.1_T3.2 (ssRNA)
RNA: UUUGACAACUGAUCGUUCUUUCUUGUUGUAUAUAUAUUCUUUCUCGAUCAGUUGUCUUU
B14: Id_iii_S4_P3E.7_K3.3_C3.3_[C-2G]_H3.3_A3.1_F3.1_T3.2 (ssRNA)
RNA: B13 RNA with U27A, G28C, U29A, A30C
B15: Id_iii_S4_P3E.9_K3.5_C3.3_[T-3G]_H3.1_A3.2_F3.2_T3.2 (ssRNA)
RNA: B13 RNA with U24G, G25C, U31A, U33A
B16: Id_iii_S4_P3E.9_K3.5_C3.3_[T-1A]_H3.1_A3.2_F3.2_T3.2 (ssRNA)
RNA: B13 RNA with G25C, U26A, U31A, U33A
B17: Id_iii_S4_P3E.5_K3.1_C3.3_[T-1A]_H3.1_A3.1_F3.1_T3.2 (ssRNA)
RNA: B13 RNA with G25C, U26A
B18: Id_iii_S4_P3E.6_K3.2_C3.3_[C-2G]_H3.2_A3.1_F3.1_T3.2 (ssRNA)
RNA: B13 RNA with G28A
B19: Id_iii_S4_P3E.8_K3.4_C3.3_[T-1C]_H3.1_A3.2_F3.1_T3.2 (ssRNA)
RNA: B13 RNA with G25C, U26C, U31A
B20: Id_iii_S4_P3E.6_K3.2_C3.3_H3.2_A3.1_F3.1_T3.2_[A10C] (ssRNA)
RNA: B13 RNA with G25C, G28A, A36C
B21: Id_iii_S4_P3E.6_K3.2_C3.3_[T-1C]_H3.2_A3.1_F3.1_T3.2 (ssRNA)
RNA: B13 RNA with G25C, U26C, G28A
B22: Id_iii_S4_P3E.8_K3.4_C3.3_H3.1_A3.2_F3.1_T3.2_[A10G] (ssRNA)
RNA: B13 RNA with G25C, U31A, A36G
B23: Id_iii_S4_P3E.9_K3.5_C3.3_[C-2T]_H3.1_A3.2_F3.2_T3.2 (ssRNA)
RNA: B13 RNA with G25U, U31A, U33A
B24: Id_iii_S4_P3E.7_K3.3_C3.3_[T-1A]_H3.3_A3.1_F3.1_T3.2 (ssRNA)
RNA: B13 RNA with G25C, U26A, U27A, G28C, U29A, A30C
B25: Id_iii_S4_P3E.9_K3.5_C3.3_H3.1_A3.2_F3.2_T3.2_[A10C] (ssRNA)
RNA: B13 RNA with G25C, U31A, U33A, A36C
B26: Id_iii_S4_P3E.7_K3.3_C3.3_[T-3A]_H3.3_A3.1_F3.1_T3.2 (ssRNA)
RNA: B13 RNA with U24A, G25C, U27A, G28C, U29A, A30C
B27: Id_iii_S4_P3E.7_K3.3_C3.3_H3.3_A3.1_F3.1_T3.2_[A10C] (ssRNA)
RNA: B13 RNA with G25C, U27A, G28C, U29A, A30C, A36C
B28: Id_iii_S4_P5E.5_K5.1_C5.3_H5.1_A5.1_F5.1_T5.2_[A12C] (ssRNA)
RNA: UUUGACAACUGAUCGUUCUUUCUUCUUGUAUUAUUAUCUUCUUUCUCGAUCAGUUGUCUUU
B29: Id_iii_S4_P5E.7_K5.3_C5.3_[C-2A]_H5.3_A5.1_F5.1_T5.2 (ssRNA)
RNA: B28 RNA with C25A, U27A, G28C, U29A, A30C, C38A
B30: Id_iii_S4_P5E.5_K5.1_C5.3_H5.1_A5.1_F5.1_T5.2_[A12T] (ssRNA)
RNA: B28 RNA with C38U
B31: Id_iii_S4_P5E.8_K5.4_C5.3_[C-2G]_H5.1_A5.2_F5.1_T5.2 (ssRNA)
RNA: B28 RNA with C25G, U31A, C38A
B32: Id_iii_S4_P5E.7_K5.3_C5.3_[C-2T]_H5.3_A5.1_F5.1_T5.2 (ssRNA)
RNA: B28 RNA with C25U, U27A, G28C, U29A, A30C, C38A
B33: Id_iii_S4_P5E.8_K5.4_C5.3_H5.1_A5.2_F5.1_T5.2_[A12C] (ssRNA)
RNA: B28 RNA with U31A
B34: Id_iii_S4_P5E.7_K5.3_C5.3_[T-1C]_H5.3_A5.1_F5.1_T5.2 (ssRNA)
RNA: B28 RNA with U26C, U27A, G28C, U29A, A30C, C38A

biological target: T1, PUF4 RNA-binding domain; test: Mg; RNA-MaP; 20 mM Na-HEPES pH 7.4, 30 mM KOAc, 0.75 mM MgCl2, 0.1% Tween-20, 5% glycerol, 0.1 mg/mL BSA, 2 mM DTT; 25 C; 0.0125-409.6 nM protein; conditions: tags: N-His6-TEV cleaved; C-SNAP kept, Cy3B-labelled; label: tethered on chip by stalled RNA polymerase

Binder | Kd [nM]
UCUCUUUGUAGUCUUAUCUCUU (ssRNA) [Ib_S1_P5E.1_K5.1_C5.1_H5.1_A5.1_[T5G]_[A7C]_F5.1_T5.1] | 93.7
B1 | 0.43
B2 | 91.7
B3 | 1.14
B4 | 0.631
B5 | 0.755
B6 | 1.04
B7 | > 2300
B8 | 1.14
B9 | 1.75
B10 | 0.819
B11 | 1.79
B12 | 7.5
UCUCUUUGUACUGUUAUCUCUU (ssRNA) [Ib_S1_P5E.1_K5.1_C5.1_H5.1_A5.1_[T5C]_[A7G]_F5.1_T5.1] | 7.89
B13 | 1.77
B14 | 0.724
B15 | 25.8
B16 | 48.5
B17 | 1.71
B18 | 20.4
B19 | 2.97
B20 | 131
B21 | 33.1
B22 | 14.2
B23 | 34.5
B24 | 137
B25 | 308

Binder | Kd [nM]
B26 | 364
B27 | 611
UCUCUUCUUUUUGUAUAUAUAUCUCUU (ssRNA) [Ie_S1_P3E.2_K3.1_C3.2_H3.1_[+1TTT]_A3.1_F3.1_T3.2] | 5.49
UCUCUUCUUUUGUAUAUAUAUCUCUU (ssRNA) [Ie_S1_P3E.2_K3.1_C3.2_H3.1_[+1TT]_A3.1_F3.1_T3.2] | 5.47
UCUCUUCCCUCUUGUAUAUAUAUCUCUU (ssRNA) [Ie_S1_P3E.2_K3.1_C3.2_[+-2CCTC]_H3.1_A3.1_F3.1_T3.2] | 7.14
UCUCUUCUUCUUGUAUAUAUAUCUCUU (ssRNA) [Ie_S1_P3E.2_K3.1_C3.2_[+-1TCT]_H3.1_A3.1_F3.1_T3.2] | 4.28
UCUCUUUGUAGUUUUAUCUCUU (ssRNA) [Ib_S1_P5E.1_K5.1_C5.1_H5.1_A5.1_[T5G]_[A7T]_F5.1_T5.1] | 27.2
UCUCUUCUUUGUAUAUAUAUCUCUU (ssRNA) [Ie_S1_P3E.2_K3.1_C3.2_[+-2T]_H3.1_A3.1_F3.1_T3.2] | 4.55
UCUCUUCUCUUGUAUAUAUAUCUCUU (ssRNA) [Ie_S1_P3E.2_K3.1_C3.2_[+-2TC]_H3.1_A3.1_F3.1_T3.2] | 4.74
UCUCUUUGUACUCUUAUCUCUU (ssRNA) [Ib_S1_P5E.1_K5.1_C5.1_H5.1_A5.1_[T5C]_[A7C]_F5.1_T5.1] | 9.68
UCUCUUCCUCUUGUAUAUAUAUCUCUU (ssRNA) [Ie_S1_P3E.2_K3.1_C3.2_[+-2CTC]_H3.1_A3.1_F3.1_T3.2] | 7.17
UCUCUUUGUACUUUUAUCUCUU (ssRNA) [Ib_S1_P5E.1_K5.1_C5.1_H5.1_A5.1_[T5C]_[A7T]_F5.1_T5.1] | 3.92
UCUCUUCCUCUUUGUAUAUAUAUCUCUU (ssRNA) [Ie_S1_P3E.2_K3.1_C3.2_[+-2CTCT]_H3.1_A3.1_F3.1_T3.2] | 4.97
ACAAACUCUACACUAUAUUACAAAC (ssRNA) [Id_iii_S3_P3E.7_K3.3_C3.3_H3.3_A3.1_F3.1_T3.2_[A10T]] | 922
UCUCUUCUCUCUUGUAUAUAUAUCUCUU (ssRNA) [Ie_S1_P3E.2_K3.1_C3.2_[+-2TCTC]_H3.1_A3.1_F3.1_T3.2] | 4.58
B28 | 1.71
B29 | 1020
B30 | 1.28
B31 | 11.1
B32 | 513
B33 | 2.73
B34 | 543
ACAAACUCCACACUAUUAGUACAAAC (ssRNA) [Id_iii_S3_P4E.7_K4.3_C4.3_[T-1C]_H4.3_A4.1_F4.1_T4.2] | > 2300
UCUCUUCCCUUGUAUAUAUAUCUCUU (ssRNA) [Ie_S1_P3E.2_K3.1_C3.2_[+-2CC]_H3.1_A3.1_F3.1_T3.2] | 7.06
ACAAACUCAACACUAUAUAACAAAC (ssRNA) [Id_iii_S3_P3E.7_K3.3_C3.3_[T-1A]_H3.3_A3.1_F3.1_T3.2] | 1780
UCUCUUCCUUUUGUAUAUAUAUCUCUU (ssRNA) [Ie_S1_P3E.2_K3.1_C3.2_[+-2CTT]_H3.1_A3.1_F3.1_T3.2] | 5.14
UCUCUUCUCCUUGUAUAUAUAUCUCUU (ssRNA) [Ie_S1_P3E.2_K3.1_C3.2_[+-2TCC]_H3.1_A3.1_F3.1_T3.2] | 4.39
